Results as given in publication PMC8115264, “Mitofusin-2 stabilizes adherens junctions and suppresses endothelial inflammation via modulation of β-catenin signaling” (Nature Communications, 2021).

Target: T1, GFP-Mfn2 (UniProt O95140 1-757)
T1 construct: The construct was generated in the authors' laboratory; also called lentiviral GFP-Mfn2; GFP-tagged Mfn2; source: HLMVECs, lentiviral expression (pWPXL), in lysate
T1 sequence (looked up): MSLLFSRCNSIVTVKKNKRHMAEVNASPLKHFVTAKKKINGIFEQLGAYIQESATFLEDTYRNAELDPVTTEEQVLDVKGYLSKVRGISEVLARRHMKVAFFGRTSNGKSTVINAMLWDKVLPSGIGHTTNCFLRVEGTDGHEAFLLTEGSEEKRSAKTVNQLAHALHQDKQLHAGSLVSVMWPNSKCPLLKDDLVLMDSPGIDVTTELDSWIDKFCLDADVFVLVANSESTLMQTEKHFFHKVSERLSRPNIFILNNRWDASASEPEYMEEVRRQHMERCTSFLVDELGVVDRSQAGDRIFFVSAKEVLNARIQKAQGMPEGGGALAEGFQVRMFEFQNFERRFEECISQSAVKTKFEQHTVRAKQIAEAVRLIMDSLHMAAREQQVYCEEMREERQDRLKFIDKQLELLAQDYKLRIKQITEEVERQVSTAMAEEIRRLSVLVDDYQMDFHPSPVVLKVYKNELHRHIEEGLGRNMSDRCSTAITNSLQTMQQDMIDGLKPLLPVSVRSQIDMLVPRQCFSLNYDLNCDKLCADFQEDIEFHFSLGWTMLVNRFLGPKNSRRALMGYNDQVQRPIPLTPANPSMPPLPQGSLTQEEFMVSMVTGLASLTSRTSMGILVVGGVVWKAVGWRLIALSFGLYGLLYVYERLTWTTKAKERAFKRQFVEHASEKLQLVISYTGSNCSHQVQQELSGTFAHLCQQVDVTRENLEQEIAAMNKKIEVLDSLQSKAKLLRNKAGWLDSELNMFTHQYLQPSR
Assay: co-IP; HLMVECs expressing GFP or GFP-Mfn2, with or without TNFα (10 ng/mL) for 6 h; GFP-Mfn2 immunoprecipitated with GFP-trap magnetic agarose, Western blot for β-catenin and Mfn2
Conditions: partners not purified

B1: β-catenin (natural protein, human (endogenous in HLMVECs), UniProt P35222 1-781, looked up)
chain: MATQADLMELDMAMEPDRKAAVSHWQQQSYLDSGIHSGATTTAPSLSGKGNPEEEDVDTSQVLYEWEQGFSQSFTQEQVADIDGQYAMTRAQRVRAAMFPETLDEGMQIPSTQFDAAHPTNVQRLAEPSQMLKHAVVNLINYQDDAELATRAIPELTKLLNDEDQVVVNKAAVMVHQLSKKEASRHAIMRSPQMVSAIVRTMQNTNDVETARCTAGTLHNLSHHREGLLAIFKSGGIPALVKMLGSPVDSVLFYAITTLHNLLLHQEGAKMAVRLAGGLQKMVALLNKTNVKFLAITTDCLQILAYGNQESKLIILASGGPQALVNIMRTYTYEKLLWTTSRVLKVLSVCSSNKPAIVEAGGMQALGLHLTDPSQRLVQNCLWTLRNLSDAATKQEGMEGLLGTLVQLLGSDDINVVTCAAGILSNLTCNNYKNKMMVCQVGGIEALVRTVLRAGDREDITEPAICALRHLTSRHQEAEMAQNAVRLHYGLPVVVKLLHPPSHWPLIKATVGLIRNLALCPANHAPLREQGAIPRLVQLLVRAHQDTQRRTSMGGTQQQFVEGVRMEEIVEGCTGALHILARDVHNRIVIRGLNTIPLFVQLLYSPIENIQRVAAGVLCELAQDKEAAEAIEAEGATAPLTELLHSRNEGVATYAAAVLFRMSEDKPQDYKKRLSVELTSSLFRTEPMAWNETADLGLDIGAQGEPLGYRQDDPSYRSFHSGGYGQDALGMDPMMEHEMGGHHPGADYPVDGLPDLGHAQDLMDGLPPGDSNQLAWFDTDL
notes: β-catenin, endogenous in human lung microvascular endothelial cells; also called beta-catenin; source: endogenous, HLMVEC lysate or fixed HLMVECs
  fold increase of the interaction after TNFα against basal: 6 fold
